Measured values reported in publication doi:10.1101/2023.11.28.564875 (bioRxiv, 2023).

Tests used:
[1] = molecular target: T1, GST-fused Cα-subunit of mouse PKA (GST-PKAC) (mouse, UniProt P05132 1-351); assay: pull-down
[2] = molecular target: T1, GST-fused Cα-subunit of mouse PKA …; assay: pull-down; remark: listed apart in the source

B1: His8-DCRD-Myc (domain or fragment)
chain: RQFHGSASSLVEAVLISEGLGQFAQDPKFIEVTTQELADACDLTIEEMENAADDILSGGARQS
In the case of B1, the IC50 [1] is reported as 880 nM and the Kd [2] is reported as < 1000 nM.
